Reference: patent US8187838B2, “β-Galactoside-α2, 6-sialyltransferase, a gene encoding thereof, and a method for producing thereof” (Japan Tobacco Inc., priority 2006, dated 2012)

Experiment: Time-dependent induction of expression, sialyltransferase activity and productivity in E. coli homogenate
Format: biochemical
Details: for Total enzyme activity (unit): 0.3 L culture; for Amount of transferred sialic acid / Radioactivity (CPM): 1 minute, 30° C.; for Radioactivity (CPM): crude enzyme diluted 200-fold
Procedure: A time-dependent induction experiment of protein expression was performed on the ISH224-N0C0 and ISH224-N1C0 clones obtained in Example 2. A single colony of E. coli TB1 having the expression vector pTrc99A carrying each clone was inoculated into LB medium (6 ml) containing an antibiotic, ampicillin (final concentration 100 μg/mL), and pre-cultured at 30° C. for about 8 hours. This pre-cultured solution was inoculated into LB medium (300 ml) containing and antibiotic, ampicillin (final concentration 100 μg/mL) and cultured with shaking at 30° C. When OD600 reached around 0.5, IPTG (isopropyl-β-D(−)-thiogalactopyranoside, Wako Pure Chemical Industries, Ltd., Japan) was added at a final concentration of 1 mM, followed by culturing with shaking at 30° C. At 4, 6, 22 and 28 hours after culturing, the cells in each culture solution were collected by centrifugation. These cells were suspended in 20 mM Bis-Tris buffer (pH 6.0) containing 0.336% […] Triton® X-100, and ultrasonically homogenized under ice cooling. The resulting homogenate was defined as a crude enzyme solution, diluted 200-fold with 20 mM cacodylate buffer (pH 5.0) containing 0.336% Triton X®-100, and then provided for activity measurement. The reaction was carried out in duplicate. The reaction conditions are as indicated in the footnote of Table 2.
Reaction Conditions Reaction composition:
Reaction time: 1 minute Reaction temperature: 30° C.

B1: ISH224-N1C0 (protein, listed as Photobacterium sp.)
chain: MSEENTQSIIKNDINKTIIDEEYVNLEPINQSNISFTKHSWVQTCGTQQLLTEQNKESISLSVVAPRLDDDEKYCFDFNGVSNKGEKYITKVTLNVVAPSLEVYVDHASLPTLQQLMDIIKSEEENPTAQRYIAWGRIVPTDEQMKELNITSFALINNHTPADLVQEIVKQAQTKHRLNVKLSSNTAHSFDNLVPILKELNSFNNVTVTNIDLYDDGSAEYVNLYNWRDTLNKTDNLKIGKDYLEDVINGINEDTSNTGTSSVYNWQKLYPANYHFLRKDYLTLEPSLHELRDYIGDSLKQMQWDGFKKFNSKQQELFLSIVNFDKQKLQNEYNSSNLPNFVFTGTTVWAGNHEREYYAKQQINVINNAINESSPHYLGNSYDLFFKGHPGGGIINTLIMQNYPSMVDIPSKISFEVLMMTDMLPDAVAGIASSLYFTIPAEKIKFIVFTSTETITDRETALRSPLVQVMIKLGIVKEENVLFWADLPNCETGVCIAV
fold higher productivity than Pasteurella multocida-derived α2,3-sialyltransferase (6,000 U/L): about 1.8 fold | fold higher productivity than Photobacterium damselae-derived recombinant β-galactoside-α2,6-sialyltransferase (224.5 U/L): about 48 fold | Enzyme concentration in crude enzyme solution (unit/ml) (4 hours after IPTG addition): 6.8 unit/ml | Productivity (U/L of medium) (4 hours after IPTG addition): 589 U/L of medium | Total enzyme activity (unit) (4 hours after IPTG addition): 177 unit | Amount of transferred sialic acid (4 hours after IPTG addition): 0.17 nmol | Radioactivity (CPM) (4 hours after IPTG addition): 142.5 CPM | Enzyme concentration in crude enzyme solution (unit/ml) (6 hours after IPTG addition): 14.8 unit/ml | Productivity (U/L of medium) (6 hours after IPTG addition): 1285 U/L of medium | Total enzyme activity (unit) (6 hours after IPTG addition): 385 unit | Amount of transferred sialic acid (6 hours after IPTG addition): 0.37 nmol | Radioactivity (CPM) (6 hours after IPTG addition): 311.0 CPM | Enzyme concentration in crude enzyme solution (unit/ml) (22 hours after IPTG addition): 86.2 unit/ml | Productivity (U/L of medium) (22 hours after IPTG addition): 10776 U/L of medium | Total enzyme activity (unit) (22 hours after IPTG addition): 3233 unit | Amount of transferred sialic acid (22 hours after IPTG addition): 2.16 nmol | Radioactivity (CPM) (22 hours after IPTG addition): 1809.0 CPM | Productivity (U/L of medium) (22 hours after IPTG addition, listed as ISH224-N1C0 clone): 10,776 U/L of medium | Enzyme concentration in crude enzyme solution (unit/ml) (28 hours after IPTG addition): 69.5 unit/ml | Productivity (U/L of medium) (28 hours after IPTG addition): 8946 U/L of medium | Total enzyme activity (unit) (28 hours after IPTG addition): 2684 unit | Amount of transferred sialic acid (28 hours after IPTG addition): 1.74 nmol | Radioactivity (CPM) (28 hours after IPTG addition): 1459.0 CPM | time of maximum β-galactoside-α2,6-sialyltransferase activity after IPTG addition (culture at 30° C., 1 mM IPTG): 22 h
